Data on six substances can be found in PMC3315485.

Assay in all cases: MITOMI
Series [1] relates to MarA RTR (Escherichia coli). As to conditions: MITOMI at 295 K; buffer, salt and pH not given in the material; scale: ddG kJ/mol vs strongest site.
Series [2] deals with MarA RQR (Escherichia coli). As to conditions: MITOMI at 295 K; buffer, salt and pH not given in the material.
Series [3] relates to MarA wild type (WQR) (Escherichia coli). Particulars: MITOMI at 295 K; buffer, salt and pH not given in the material.
Series [4] concerns MarA TRR (Escherichia coli). Particulars: MITOMI at 295 K; buffer, salt and pH not given in the material.

For mar site GAA, the binding signal in series [1] was > 3.3.

With mar site GAT, the binding signal in series [1] was > 3.3.

For mar site GCA, the binding signal (fold reduced affinity vs TCC) in series [2] was 1.6. Further, the binding signal (relative KA (strongest site = 1)) in series [3] was 1.

In the case of mar site GAG, the binding signal in series [1] was > 3.3.

Turning to mar site GAC, in series [1], the binding signal is > 3.3. Further, the binding signal (relative KA (strongest site = 1)) in series [4] came to 1.

As to mar site TCC, the binding signal (relative KA (strongest site = 1)) in series [2] turned out to be 1.
